Patent US20260167721A1 (ABLEXIS, published 2026)

Tests used:
[1] = target: T1, human CD3 (TCR/CD3 complex on the cell surface) (human, UniProt P07766 23-207; P04234 22-171; P09693 23-182); assay: flow cytometry, Pan-T cells, 1 ug/mL
T1 construct: whole, on cells; Native CD3 on human Pan-T cells or Jurkat wild-type cells; also called CD3 on Pan-T cells; CD3 on Jurkat WT cells

[2] = target: T1, human CD3 (TCR/CD3 complex on the cell …); assay: flow cytometry, Pan-T cells, 10 ug/mL
[3] = target: T1, human CD3 (TCR/CD3 complex on the cell …); assay: flow cytometry, Jurkat WT gMFI over Jurkat KO gMFI, 1 ug/mL
[4] = target: T1, human CD3 (TCR/CD3 complex on the cell …); assay: flow cytometry, Jurkat WT cells, 10 ug/mL
[5] = target: T1, human CD3 (TCR/CD3 complex on the cell …); assay: flow cytometry, Jurkat WT cells, 1 ug/mL
[6] = target: T1, human CD3 (TCR/CD3 complex on the cell …); assay: flow cytometry, Jurkat WT gMFI over Jurkat KO gMFI, 10 ug/mL

T1 sequence (P07766 23-207, chain 1 of 3): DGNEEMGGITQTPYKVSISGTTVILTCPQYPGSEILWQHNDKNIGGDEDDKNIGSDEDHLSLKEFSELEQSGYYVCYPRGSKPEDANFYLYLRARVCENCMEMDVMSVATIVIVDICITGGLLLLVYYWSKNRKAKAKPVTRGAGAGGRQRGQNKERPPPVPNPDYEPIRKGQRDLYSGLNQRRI
T1 sequence (P04234 22-171, chain 2 of 3): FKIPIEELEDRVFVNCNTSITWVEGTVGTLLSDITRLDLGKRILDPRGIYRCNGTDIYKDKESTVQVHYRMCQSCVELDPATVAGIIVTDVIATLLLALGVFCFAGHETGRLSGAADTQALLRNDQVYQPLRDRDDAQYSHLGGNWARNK
T1 sequence (P09693 23-182, chain 3 of 3): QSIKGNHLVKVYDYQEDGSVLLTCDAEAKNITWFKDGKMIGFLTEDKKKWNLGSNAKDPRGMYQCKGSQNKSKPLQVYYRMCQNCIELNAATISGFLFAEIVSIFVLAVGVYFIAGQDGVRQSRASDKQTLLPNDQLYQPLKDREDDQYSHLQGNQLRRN

Binder | % Positive [1] [%] | gMFI [1] [gMFI] | % Positive [2] [%] | gMFI [2] [gMFI] | Jurkat WT/KO (Fold) [3] [fold] | gMFI [4] [gMFI] | gMFI [5] [gMFI] | Jurkat WT/KO (Fold) [6] [fold]
CD3 × CD33-BspAb90 (bispecific antibody, KiH heterodimer) scFv-Fc: not shown heavy: EVQLVQSGAEVKKPGSSVKVSCKASGYTITDSNIHWVRQAPGQSLEWIGYIYPYNGGTDYNQKFKNRATLTVDNPTNTAYMELSSLRSEDTAFYYCVNGNPWLAYWGQGTLVTVSSASTKGPSVFPLAPSSKSTSGGTAALGCLVKDYFPEPVTVSWNSGALTSGVHTFPAVLQSSGLYSLSSVVTVPSSSLGTQTYICNVNHKPSNTKVDKRVEPKSCDKTHTCPPCPAPEFEGGPSVFLFPPKPKDTLMISRTPEVTCVVVDVSHEDPEVKFNWYVDGVEVHNAKTKPREEQYNSTYRVVSVLTVLHQDWLNGKEYKCKVSNKALPASIEKTISKAKGQPREPQVCTLPPSREEMTKNQVSLSCAVKGFYPSDIAVEWESNGQPENNYKTTPPVLDSDGSFFLVSKLTVDKSRWQQGNVFSCSVMHEALHNRFTQKSLSLSPGK light: DIQLTQSPSTLSASVGDRVTITCRASESLDNYGIRFLTWFQQKPGKAPKLLMYAASNQGSGVPSRFSGSGSGTEFTLTISSLQPDDFATYYCQQTKEVPWSFGQGTKVEVKRTVAAPSVFIFPPSDEQLKSGTASVVCLLNNFYPREAKVQWKVDNALQSGNSQESVTEQDSKDSTYSLSSTLTLSKADYEKHKVYACEVTHQGLSSPVTKSFNRGEC | 83.8 | 11600 | 98.1 | 78400 | 1.9 | 19400 | 4480 | 7.5
CD3 × CD33-BspAb93 (bispecific antibody) chain 1: NFMLTQPHSVSESPGKTVTISCTRSSGSIASKYVQWYQQRPGSSPTTVIYEDNQRPSGVPDRFSGSIDSSSNSASLTISGLKTEDEADYYCQSYYSNNRVFGCGTKLTVLGGGGSGGGGSGGGGSGGGGSEVQLVESGGGLVQPGGSLRLSCAASGFTFSRYSMNWVRQAPGKCLEWVSYISRSSTTIYYADSVKGRFTISRDNAKNSLYLQMNSLRDEDAAVYYCARERWELLYFDYWGQGTLVTVSSDKTHTCPPCPAPEFEGGPSVFLFPPKPKDTLMISRTPEVTCVVVDVSHEDPEVKFNWYVDGVEVHNAKTKPREEQYNSTYRVVSVLTVLHQDWLNGKEYKCKVSNKALPASIEKTISKAKGQPREPQVYTLPPCREEMTKNQVSLWCLVKGFYPSDIAVEWESNGQPENNYKTTPPVLDSDGSFFLYSKLTVDKSRWQQGNVFSCSVMHEALHNHYTQKSLSLSPGK chain 2: EVQLVQSGAEVKKPGSSVKVSCKASGYTITDSNIHWVRQAPGQSLEWIGYIYPYNGGTDYNQKFKNRATLTVDNPTNTAYMELSSLRSEDTAFYYCVNGNPWLAYWGQGTLVTVSSASTKGPSVFPLAPSSKSTSGGTAALGCLVKDYFPEPVTVSWNSGALTSGVHTFPAVLQSSGLYSLSSVVTVPSSSLGTQTYICNVNHKPSNTKVDKRVEPKSCDKTHTCPPCPAPEFEGGPSVFLFPPKPKDTLMISRTPEVTCVVVDVSHEDPEVKFNWYVDGVEVHNAKTKPREEQYNSTYRVVSVLTVLHQDWLNGKEYKCKVSNKALPASIEKTISKAKGQPREPQVCTLPPSREEMTKNQVSLSCAVKGFYPSDIAVEWESNGQPENNYKTTPPVLDSDGSFFLVSKLTVDKSRWQQGNVFSCSVMHEALHNRFTQKSLSLSPGK chain 3: DIQLTQSPSTLSASVGDRVTITCRASESLDNYGIRFLTWFQQKPGKAPKLLMYAASNQGSGVPSRFSGSGSGTEFTLTISSLQPDDFATYYCQQTKEVPWSFGQGTKVEVKRTVAAPSVFIFPPSDEQLKSGTASVVCLLNNFYPREAKVQWKVDNALQSGNSQESVTEQDSKDSTYSLSSTLTLSKADYEKHKVYACEVTHQGLSSPVTKSFNRGEC | 98.2 | 29600 | 99.8 | 135000 | 5.6 | 28400 | 16200 | 9.5
CD3 × CD33-BspAb91 (bispecific antibody) chain 1: DIQMTQSPSTLSASVGDRVTITCRASQSISSWLAWFQQKTGKAPKLLIYKASSLESGVPSRFSGSGSGTEFTLTISSLQPDDFATYYCQQYISYSWTFGCGTKVEIKGGGGSGGGGSGGGGSGGGGSEVQLVESGGGLVQRGGSLRLSCAASGFTFSNYWMSWVRQAPGKCLEWVANIKEDGSEKYYVDSVKGRFTISRDNAKHSLYLQMNSLRAEDTAVYYCARERRTGYFDYWGQGTLVTVSSDKTHTCPPCPAPEFEGGPSVFLFPPKPKDTLMISRTPEVTCVVVDVSHEDPEVKFNWYVDGVEVHNAKTKPREEQYNSTYRVVSVLTVLHQDWLNGKEYKCKVSNKALPASIEKTISKAKGQPREPQVYTLPPCREEMTKNQVSLWCLVKGFYPSDIAVEWESNGQPENNYKTTPPVLDSDGSFFLYSKLTVDKSRWQQGNVFSCSVMHEALHNHYTQKSLSLSPGK chain 2: EVQLVQSGAEVKKPGSSVKVSCKASGYTITDSNIHWVRQAPGQSLEWIGYIYPYNGGTDYNQKFKNRATLTVDNPTNTAYMELSSLRSEDTAFYYCVNGNPWLAYWGQGTLVTVSSASTKGPSVFPLAPSSKSTSGGTAALGCLVKDYFPEPVTVSWNSGALTSGVHTFPAVLQSSGLYSLSSVVTVPSSSLGTQTYICNVNHKPSNTKVDKRVEPKSCDKTHTCPPCPAPEFEGGPSVFLFPPKPKDTLMISRTPEVTCVVVDVSHEDPEVKFNWYVDGVEVHNAKTKPREEQYNSTYRVVSVLTVLHQDWLNGKEYKCKVSNKALPASIEKTISKAKGQPREPQVCTLPPSREEMTKNQVSLSCAVKGFYPSDIAVEWESNGQPENNYKTTPPVLDSDGSFFLVSKLTVDKSRWQQGNVFSCSVMHEALHNRFTQKSLSLSPGK chain 3: DIQLTQSPSTLSASVGDRVTITCRASESLDNYGIRFLTWFQQKPGKAPKLLMYAASNQGSGVPSRFSGSGSGTEFTLTISSLQPDDFATYYCQQTKEVPWSFGQGTKVEVKRTVAAPSVFIFPPSDEQLKSGTASVVCLLNNFYPREAKVQWKVDNALQSGNSQESVTEQDSKDSTYSLSSTLTLSKADYEKHKVYACEVTHQGLSSPVTKSFNRGEC | 94.6 | 18500 | 99.4 | 127000 | 3.7 | 31600 | 8110 | 10.4
CD3 × CD33-BspAb94 (bispecific antibody) chain 1: NFMLTQPHSVSESPGKTVTISCTRSSGSIASNYVQWYQQRPGSSPTTVIYEDNQRPSGVPDRFSGSIDSSSNSASLTISGLKTEDEADYYCQSYDSSNRVFGCGTKLTVLGGGGSGGGGSGGGGSGGGGSEVQLVESGGGLVKPGGSLRLSCAASGFTFSSYTMNWVRQAPGKCLEWVSSITTSSSYIYYADSVKGRFTISRDNAKNSLYLQMNSLRAEDTAVYYCARVTFDAFDIWGQGTMVTVSSDKTHTCPPCPAPEFEGGPSVFLFPPKPKDTLMISRTPEVTCVVVDVSHEDPEVKFNWYVDGVEVHNAKTKPREEQYNSTYRVVSVLTVLHQDWLNGKEYKCKVSNKALPASIEKTISKAKGQPREPQVYTLPPCREEMTKNQVSLWCLVKGFYPSDIAVEWESNGQPENNYKTTPPVLDSDGSFFLYSKLTVDKSRWQQGNVFSCSVMHEALHNHYTQKSLSLSPGK chain 2: EVQLVQSGAEVKKPGSSVKVSCKASGYTITDSNIHWVRQAPGQSLEWIGYIYPYNGGTDYNQKFKNRATLTVDNPTNTAYMELSSLRSEDTAFYYCVNGNPWLAYWGQGTLVTVSSASTKGPSVFPLAPSSKSTSGGTAALGCLVKDYFPEPVTVSWNSGALTSGVHTFPAVLQSSGLYSLSSVVTVPSSSLGTQTYICNVNHKPSNTKVDKRVEPKSCDKTHTCPPCPAPEFEGGPSVFLFPPKPKDTLMISRTPEVTCVVVDVSHEDPEVKFNWYVDGVEVHNAKTKPREEQYNSTYRVVSVLTVLHQDWLNGKEYKCKVSNKALPASIEKTISKAKGQPREPQVCTLPPSREEMTKNQVSLSCAVKGFYPSDIAVEWESNGQPENNYKTTPPVLDSDGSFFLVSKLTVDKSRWQQGNVFSCSVMHEALHNRFTQKSLSLSPGK chain 3: DIQLTQSPSTLSASVGDRVTITCRASESLDNYGIRFLTWFQQKPGKAPKLLMYAASNQGSGVPSRFSGSGSGTEFTLTISSLQPDDFATYYCQQTKEVPWSFGQGTKVEVKRTVAAPSVFIFPPSDEQLKSGTASVVCLLNNFYPREAKVQWKVDNALQSGNSQESVTEQDSKDSTYSLSSTLTLSKADYEKHKVYACEVTHQGLSSPVTKSFNRGEC | 2.6 | 2050 | 4.4 | 2600 | 0.8 | 2190 | 1830 | 1.1
